B1: Lysyl oxidase homolog 2 (Homo sapiens), Q9Y4K0 (parent)
chain: MERPLCSHLCSCLAMLALLSPLSLAQYDSWPHYPEYFQQPAPEYHQPQAPANVAKIQLRLAGQKRKHSEGRVEVYYDGQWGTVCDDDFSIHAAHVVCRELGYVEAKSWTASSSYGKGEGPIWLDNLHCTGNEATLAACTSNGWGVTDCKHTEDVGVVCSDKRIPGFKFDNSLINQIENLNIQVEDIRIRAILSTYRKRTPVMEGYVEVKEGKTWKQICDKHWTAKNSRVVCGMFGFPGERTYNTKVYKMFASRRKQRYWPFSMDCTGTEAHISSCKLGPQVSLDPMKNVTCENGLPAVVSCVPGQVFSPDGPSRFRKAYKPEQPLVRLRGGAYIGEGRVEVLKNGEWGTVCDDKWDLVSASVVCRELGFGSAKEAVTGSRLGQGIGPIHLNEIQCTGNEKSIIDCKFNAESQGCNHEEDAGVRCNTPAMGLQKKLRLNGGRNPYEGRVEVLVERNGSLVWGMVCGQNWGIVEAMVVCRQLGLGFASNAFQETWYWHGDVNSNKVVMSGVKCSGTELSLAHCRHDGEDVACPQGGVQYGAGVACSETAPDLVLNAEMVQQTTYLEDRPMFMLQCAMEENCLSASAAQTDPTTGYRRLLRFSSQIHNNGQSDFRPKNGRHAWIWHDCHRHYHSMEVFTHYDLLNLNGTKVAEGHKASFCLEDTECEGDIQKNYECANFGDQGITMGCWDMYRHDIDCQWVDITDVPPGDYLFQVVINPNFEVAESDYSNNIMKCRSRYDGHRIWMYNCHIGGSFSEETEKKFEHFSGLLNNQLSPQ

Variants of: B1
Settings: with can2_human CAPN2, P17655
Sequence of can2_human CAPN2, P17655 (P17655 whole entry): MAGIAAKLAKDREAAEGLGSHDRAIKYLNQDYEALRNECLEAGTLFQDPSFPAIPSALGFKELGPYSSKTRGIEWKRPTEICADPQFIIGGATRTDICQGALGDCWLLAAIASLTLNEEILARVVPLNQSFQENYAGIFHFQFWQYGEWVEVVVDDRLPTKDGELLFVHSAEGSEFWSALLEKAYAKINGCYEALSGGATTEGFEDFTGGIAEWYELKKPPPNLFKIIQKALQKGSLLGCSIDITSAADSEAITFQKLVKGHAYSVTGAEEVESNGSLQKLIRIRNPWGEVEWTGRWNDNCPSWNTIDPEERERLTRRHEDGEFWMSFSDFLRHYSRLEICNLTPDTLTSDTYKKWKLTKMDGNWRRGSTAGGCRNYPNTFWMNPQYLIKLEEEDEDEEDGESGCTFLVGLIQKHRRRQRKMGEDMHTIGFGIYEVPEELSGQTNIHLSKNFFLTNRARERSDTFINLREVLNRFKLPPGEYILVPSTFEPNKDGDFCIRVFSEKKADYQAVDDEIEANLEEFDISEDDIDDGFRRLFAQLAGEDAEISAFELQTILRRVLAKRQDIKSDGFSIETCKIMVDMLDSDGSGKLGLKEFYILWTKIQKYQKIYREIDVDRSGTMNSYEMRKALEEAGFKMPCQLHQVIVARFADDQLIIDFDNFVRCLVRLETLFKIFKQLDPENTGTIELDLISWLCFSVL

Variant | effect of a mutation on the interaction
N288Q;N455Q;N644Q | with no effect
H626Q;H628Q;Y689F | with no effect

Variants of: B1
Settings: with vime_human VIM

Variant | effect of a mutation on the interaction
H626Q;H628Q;Y689F | with no effect

Reference: IntAct's records for PubMed 31911079
